Blank lines part the entries; values can stand above or below the molecule they belong to.
Key:
[1] = molecular target: human-mouse chimeric DLK1 HM8-mGFP on HEK293T cells (region 8 of human DLK1 long form replaced with mouse); experiment: direct flow cytometry, control antibody at 20ug/ml, cells 849 HEK293T DLK1 HM8-mGFP; no ab 1,653.50; same antibody on HEK293T parental 4,432.00
[2] = molecular target: human DLK1 short form (isoform 2, DLK1-MB) fused to mGFP, expressed on HEK293T cells (human) (UniProt P80370); experiment: indirect flow cytometry, 1° control antibody at 4ug/ml detected with an AF-647 secondary antibody, cells 832-HEK293T DLK1 Iso2-mGFP mass pop (short form); same antibody on HEK293T parental 3,130.00
Chain of human DLK1 short form (isoform 2, DLK1-MB) fused to mGFP, expressed on HEK293T cells (human) (P80370 other isoform, or with tags, fused parts or gaps): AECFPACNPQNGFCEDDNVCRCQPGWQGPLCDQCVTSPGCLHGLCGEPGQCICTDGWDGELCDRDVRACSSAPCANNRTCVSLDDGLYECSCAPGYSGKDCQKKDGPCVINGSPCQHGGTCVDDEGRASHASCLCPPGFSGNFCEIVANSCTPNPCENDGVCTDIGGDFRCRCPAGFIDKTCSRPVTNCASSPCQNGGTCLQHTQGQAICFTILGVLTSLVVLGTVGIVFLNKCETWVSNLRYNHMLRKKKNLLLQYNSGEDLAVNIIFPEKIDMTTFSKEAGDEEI

[3] = molecular target: human-mouse chimeric DLK1 HM5-mGFP on HEK293T cells (region 5 of human DLK1 long form replaced with mouse); experiment: direct flow cytometry, control antibody at 20ug/ml, cells 850 HEK293T DLK1 HM5-mGFP; no ab 1,807.00; same antibody on HEK293T parental 4,432.00
Chain of human-mouse chimeric DLK1 HM5-mGFP on HEK293T cells (region 5 of human DLK1 long form replaced with mouse) (chain, as listed by the source mutant limits assumed, form in doubt): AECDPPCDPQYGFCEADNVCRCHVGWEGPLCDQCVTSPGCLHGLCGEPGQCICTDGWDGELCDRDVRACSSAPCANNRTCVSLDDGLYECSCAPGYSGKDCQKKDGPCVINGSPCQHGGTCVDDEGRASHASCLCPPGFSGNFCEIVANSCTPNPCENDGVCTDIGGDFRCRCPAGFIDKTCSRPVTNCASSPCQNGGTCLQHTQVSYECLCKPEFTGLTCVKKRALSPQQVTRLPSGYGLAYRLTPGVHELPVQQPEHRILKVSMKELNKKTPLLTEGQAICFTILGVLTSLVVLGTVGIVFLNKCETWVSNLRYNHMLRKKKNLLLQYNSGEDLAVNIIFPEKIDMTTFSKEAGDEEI

[4] = molecular target: human-mouse chimeric DLK1 HM6-mGFP on HEK293T cells (region 6 of human DLK1 long form replaced with mouse); experiment: direct flow cytometry, control antibody at 20ug/ml, cells 851 HEK293T DLK1 HM6-mGFP; no ab 1,992.00; same antibody on HEK293T parental 4,432.00
[5] = molecular target: human-mouse chimeric DLK1 HM1-mGFP on HEK293T cells (region 1 of human DLK1 long form replaced with mouse); experiment: direct flow cytometry, control antibody at 20ug/ml, cells 834 HEK293T DLK1HM1-mGFP; no ab 1,385.00; same antibody on HEK293T parental 4,432.00
[6] = molecular target: human DLK1 long form (isoform 1, DLK1-FL) fused to mGFP, overexpressed on HEK293T cells (human) (UniProt P80370); experiment: direct flow cytometry, AF647-labelled control antibody at 20ug/ml, cells HEK293T DLK1 mGFP G06 (long form); same antibody on HEK293T parental 21,331.00
Chain of human DLK1 long form (isoform 1, DLK1-FL) fused to mGFP, overexpressed on HEK293T cells (human) (P80370 24-383): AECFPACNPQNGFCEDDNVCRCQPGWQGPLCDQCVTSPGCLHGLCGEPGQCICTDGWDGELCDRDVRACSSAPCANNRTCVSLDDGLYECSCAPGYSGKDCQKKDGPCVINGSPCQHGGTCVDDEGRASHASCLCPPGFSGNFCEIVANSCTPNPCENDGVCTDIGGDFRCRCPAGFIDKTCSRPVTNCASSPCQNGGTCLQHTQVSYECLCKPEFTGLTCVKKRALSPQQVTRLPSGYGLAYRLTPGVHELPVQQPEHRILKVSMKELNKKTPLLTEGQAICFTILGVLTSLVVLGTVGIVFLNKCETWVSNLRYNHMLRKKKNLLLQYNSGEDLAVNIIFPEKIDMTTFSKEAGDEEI

[7] = molecular target: human-mouse chimeric DLK1 HM3-mGFP on HEK293T cells (region 3 of human DLK1 long form replaced with mouse); experiment: direct flow cytometry, control antibody at 20ug/ml, cells 836 HEK293T DLK1HM3-mGFP; no ab 1,657.50; same antibody on HEK293T parental 4,432.00
[8] = molecular target: human DLK1 long form (isoform 1, DLK1-FL) fused to mGFP, overexpressed on HEK293T cells (human) (UniProt P80370); experiment: direct flow cytometry, control antibody at 20ug/ml, cells HEK293T DLK1 mGFP G06 (long form); no ab 1,649.00; same antibody on HEK293T parental 4,432.00
[9] = molecular target: human-mouse chimeric DLK1 HM7-mGFP on HEK293T cells (region 7 of human DLK1 long form replaced with mouse); experiment: direct flow cytometry, control antibody at 20ug/ml, cells 848 HEK293T DLK1 HM7-mGFP; no ab 1,583.50; same antibody on HEK293T parental 4,432.00
[10] = molecular target: human DLK1 short form (isoform 2, DLK1-MB) fused to mGFP, expressed on HEK293T cells (human) (UniProt P80370); experiment: direct flow cytometry, AF647-labelled control antibody at 20ug/ml, cells 832-HEK293T DLK1 Iso2-mGFP mass pop (short form); same antibody on HEK293T parental 21,331.00
[11] = molecular target: human-mouse chimeric DLK1 HM2-mGFP on HEK293T cells (region 2 of human DLK1 long form replaced with mouse); experiment: direct flow cytometry, control antibody at 20ug/ml, cells 835 HEK293T DLK1HM2-mGFP; no ab 1,251.00; same antibody on HEK293T parental 4,432.00
[12] = molecular target: human DLK1 long form (isoform 1, DLK1-FL) fused to mGFP, overexpressed on HEK293T cells (human) (UniProt P80370); experiment: indirect flow cytometry, 1° control antibody at 4ug/ml detected with an AF-647 secondary antibody, cells HEK293T DLK1 mGFP G06 (long form); same antibody on HEK293T parental 3,130.00
[13] = molecular target: human-mouse chimeric DLK1 HM4-mGFP on HEK293T cells (region 4 of human DLK1 long form replaced with mouse); experiment: direct flow cytometry, control antibody at 20ug/ml, cells 837 HEK293T DLK1HM4-mGFP; no ab 1,516.00; same antibody on HEK293T parental 4,432.00
[14] = molecular target: human DLK1 endogenously expressed on COR-L279 small cell lung carcinoma cells (human) (UniProt P80370); experiment: flow cytometry, (His)6-tagged scFv detected with AF647-anti-His tag 2° Ab, CORL279 (DLK1+) cells; same scFv on M202 (DLK1-) 8,072.00; 2° Ab only on CORL279 63,034.00; no ab 4,394.00
[15] = molecular target: human DLK1 endogenously expressed on COR-L279 small cell lung carcinoma cells (human) (UniProt P80370); experiment: flow cytometry, (His)6-tagged scFv detected with AF647-anti-His tag 2° Ab, CORL279 (DLK1+) cells; same scFv on M202 (DLK1-) 11,680.00; 2° Ab only on CORL279 63,034.00; no ab 4,394.00
[16] = molecular target: human DLK1 endogenously expressed on COR-L279 small cell lung carcinoma cells (human) (UniProt P80370); experiment: flow cytometry, (His)6-tagged scFv detected with AF647-anti-His tag 2° Ab, CORL279 (DLK1+) cells; same scFv on M202 (DLK1-) 9,460.00; 2° Ab only on CORL279 63,034.00; no ab 4,394.00
[17] = molecular target: human DLK1 endogenously expressed on COR-L279 small cell lung carcinoma cells (human) (UniProt P80370); experiment: flow cytometry, ADC at 20µg/ml, row CORL-279 (SCLC, DLK+); row M202 of the same block: 4,385.0
[18] = molecular target: DLK1 ECD-mFc long form (human DLK1-FL, isoform 1) (human) (UniProt P80370); experiment: ELISA, plate coated with DLK1 ECD-mFc long form, anti-human IgG Fc-HRP detection
Chain of DLK1 ECD-mFc long form (human DLK1-FL, isoform 1) (human) (P80370 24-303): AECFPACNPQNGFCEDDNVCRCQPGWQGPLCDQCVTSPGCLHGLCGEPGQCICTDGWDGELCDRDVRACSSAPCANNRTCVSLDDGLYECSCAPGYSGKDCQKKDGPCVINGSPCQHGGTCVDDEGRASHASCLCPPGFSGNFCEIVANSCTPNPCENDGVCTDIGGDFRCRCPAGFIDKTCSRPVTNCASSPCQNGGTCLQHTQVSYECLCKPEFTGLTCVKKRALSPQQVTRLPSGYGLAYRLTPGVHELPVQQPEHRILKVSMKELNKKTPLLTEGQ

[19] = molecular target: human DLK1 short form (isoform 2, DLK1-MB) fused to mGFP, expressed on HEK293T cells (human) (UniProt P80370); experiment: indirect flow cytometry, 1° antibody at 4ug/ml detected with an AF-647 secondary antibody, cells 832-HEK293T DLK1 Iso2-mGFP mass pop (short form); same antibody on HEK293T parental 2,827.00; hIgG1 on the same cells 2,895.00
[20] = molecular target: human DLK1 long form (isoform 1, DLK1-FL) fused to mGFP, overexpressed on HEK293T cells (human) (UniProt P80370); experiment: indirect flow cytometry, 1° antibody at 4ug/ml detected with an AF-647 secondary antibody, cells HEK293T DLK1 mGFP G06 (long form); same antibody on HEK293T parental 2,827.00
[21] = molecular target: DLK1 ECD-mFc long form (human DLK1-FL, isoform 1) (human) (UniProt P80370); experiment: ELISA, plate coated with long form of DLK1 ECD-mFc (isoform 1), anti-human IgG Fc-HRP, OD450nm
[22] = molecular target: human DLK1 short form (isoform 2, DLK1-MB) fused to mGFP, expressed on HEK293T cells (human) (UniProt P80370); experiment: direct flow cytometry, AF647-labelled antibody at 20ug/ml, cells 832-HEK293T DLK1 Iso2-mGFP mass pop (short form); same antibody on HEK293T parental 17,562.00; hIgG1-AF647 on the same cells 29,714.00
[23] = molecular target: human DLK1 long form (isoform 1, DLK1-FL) fused to mGFP, overexpressed on HEK293T cells (human) (UniProt P80370); experiment: direct flow cytometry, AF647-labelled antibody at 20ug/ml, cells HEK293T DLK1 mGFP G06 (long form); same antibody on HEK293T parental 17,562.00

Chain of human-mouse chimeric DLK1 HM8-mGFP on HEK293T cells (region 8 of human DLK1 long form replaced with mouse) (chain, as listed by the source mutant limits assumed, form in doubt): as the sequence (P80370 24-383) above, with A93T, Y96F, K103H, D105A, T120A, R127Q counted along it

B2: 04-0561-F1scfv, single chain Fv of 04-0561-F1 DLK1 antibody, with C-terminal (His)6 tag (scFv)
scFv: DIVMTQSPDSLAVSLGERVTMNCKSSQSLLQSSNQKNYLAWYQQKPGQPPKLLVYFASTRESGVPDRFSGSGSGTDFTLTISSVQAEDVAVYYCQQHYSIPLTFGQGTKLEIKGGGGSGGGGSGGGGSQVQLQESGPGLVKPSETLSLTCTVSGFSLSIYSVHWVRQPPGKGLEWIGLIWGGGSTDYNPSLKSRVTISKDTSKNQVSLKLSSVTAADTAVYYCARKEGNYLWFAYWGQGTLVTVSSHHHHHH
average AF-647 fluorescence (FL4-H) [15]: 1.43e+06

B3: 04-0547-h2scfv, single chain Fv of 04-0547-h2 DLK1 antibody, with C-terminal (His)6 tag (scFv)
scFv: DIQMTQSPSSLSASVGDRVTITCRASHDVSTAVAWYQQKPGKAPKLLIYSASYRYTGVPSRFSGSGSGTDFTLTISSLQPEDFATYYCQQHYRIPLTFGQGTKLEIKGGGGSGGGGSGGGGSEVQLVESGGGLVQPGGSLRLSCAASGFSISDYYMAWVRQAPGKGLEWVANINYDGTNTYYADSVKGRFTISRDNSKNTLYLQMNSLRAEDTAVYYCVRSYYYYGMEYWGQGTTVTVSSHHHHHH
average AF-647 fluorescence (FL4-H) [16]: 763000

B4: 04-0547-h2-MMAE-AF647 (04-0547-h2 antibody conjugated to both MMAE and Alexa Fluor 647) (antibody, IgG1, V domains shown)
VH: EVQLVESGGGLVQPGGSLRLSCAASGFSISDYYMAWVRQAPGKGLEWVANINYDGTNTYYADSVKGRFTISRDNSKNTLYLQMNSLRAEDTAVYYCVRSYYYYGMEYWGQGTTVTVSS
VL: DIQMTQSPSSLSASVGDRVTITCRASHDVSTAVAWYQQKPGKAPKLLIYSASYRYTGVPSRFSGSGSGTDFTLTISSLQPEDFATYYCQQHYRIPLTFGQGTKLEIK
modifications: MC-VC-PAB-MMAE on free thiols of cysteines (see heavy chain); MC-VC-PAB-MMAE on free thiols of cysteines (about 90% at reduced interchain disulfides, average 4 MMAE per antibody); Alexa Fluor 647 label
ADC Binding Activity by Flow Cytometry (20µg/ml) [17]: 225000

Further lines, results first:

FL4H/AF-647 signal [1]: 4360
FL4H/AF-647 signal [2]: 2900
FL4H/AF-647 signal [3]: 7660
FL4H/AF-647 signal [4]: 6460
FL4H/AF-647 signal [5]: 8760
FL4H/AF-647 signal [6]: 47900
FL4H/AF-647 signal [7]: 8770
FL4H/AF-647 signal [8]: 9870
FL4H/AF-647 signal [9]: 5270
FL4H/AF-647 signal [10]: 29700
FL4H/AF-647 signal [11]: 8510
FL4H/AF-647 signal [12]: 4120
FL4H/AF-647 signal [13]: 8480
Molecule: non-targeting human IgG1 negative control antibody

average AF-647 fluorescence (FL4-H) [14]: 622000
B1: 04-0562-h10scfv, single chain Fv of 04-0562-h10 DLK1 antibody, with C-terminal (His)6 tag (scFv)
scFv: DIVMTQSPLSLPVTPGEPASISCRSSQSLVHINGNTYLHWYLQKPGQSPQLLIYKVSNRFSGVPDRFSGSGSGTDFTLKISRVEAEDVGVYYCSQTTHVPWTFGQGTKLEIKGGGGSGGGGSGGGGSQVQLQESGPGLVKPSETLSLTCTVSGFSLTSYGVSWVRQPPGKGLEWIGVIWGDGSTSYNPSLKSRVTISKDTSKNQVSLKLSSVTAADTAVYYCAKPDGPLGQGTLVTVSSHHHHHH

EC50 [18]: 17.9 nM
FL4H/AF-647 signal [19]: 3350
FL4H/AF-647 signal [20]: 20400
EC50 [21]: 17.9 nM
FL4H/AF-647 signal [22]: 43500
FL4H/AF-647 signal [23]: 153000
B5: LegoChem 18A5 benchmark anti-DLK1 antibody (antibody, from another filing, V domains shown)
VH: QVQLVQSGGAVVQPGHSLRLSCEASGFKFKDYGMHWVRQAPGKGLEWLAVISHDGRNKNYADSVKGRLTISRDNSKNTLSFQMNSLRAEDTAVYYCVRDWSYAFDIWGQGTLVTVSS
VL: DIQMTQSPSFLSASVGDRVNITCRASQDISRRLAWYQQKPGKAPKLLIYGAASLQSAVASRFSGSGSGTEFTLTISSLQPEDFANYYCQQIYTTPLTFGGGTKVEIK

Reference: US20250042992A1 (University of California, published 2025)
